Source: article PMC7498313, “The Sac10b homolog from Sulfolobus islandicus is an RNA chaperone”

Experiments:
Sis10b K17R [1] = target: T1, Sis10b K17R (Sulfolobus islandicus REY15A, UniProt F0NHH1 1-97, K17R); assay: EMSA; 37°C; slightly weaker than dsRNA; EMSA: 20 mM HEPES-NaOH pH 7.0, 1 mM DTT, 100 ug/ml BSA, 6% glycerol, 30 min at 25, 37 or 55°C; gel in 0.5x TBE at the same temperature; settings: protein: recombinant; tags: none; chain copies: 2; label: 5' 32P; single strand
T1 sequence: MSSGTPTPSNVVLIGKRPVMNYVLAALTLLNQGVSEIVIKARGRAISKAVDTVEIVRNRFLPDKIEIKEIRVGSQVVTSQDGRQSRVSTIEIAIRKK

Sis10b K16A [2] = target: T2, Sis10b K16A (Sulfolobus islandicus REY15A, UniProt F0NHH1 1-97, K16A); assay: as above; settings: protein: recombinant; tags: none; chain copies: 2; label: 5' 32P; single strand
T2 sequence: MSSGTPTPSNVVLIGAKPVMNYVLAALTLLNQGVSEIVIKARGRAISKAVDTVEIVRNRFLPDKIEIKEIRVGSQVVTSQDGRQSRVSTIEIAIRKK

Sis10b K17A [3] = target: T3, Sis10b K17A (Sulfolobus islandicus REY15A, UniProt F0NHH1 1-97, K17A); assay: EMSA; 55°C; no ssRNA preference over dsRNA; EMSA: 20 mM HEPES-NaOH pH 7.0, 1 mM DTT, 100 ug/ml BSA, 6% glycerol, 30 min at 25, 37 or 55°C; gel in 0.5x TBE at the same temperature; settings: protein: recombinant; tags: none; chain copies: 2; label: 5' 32P; single strand
T3 sequence: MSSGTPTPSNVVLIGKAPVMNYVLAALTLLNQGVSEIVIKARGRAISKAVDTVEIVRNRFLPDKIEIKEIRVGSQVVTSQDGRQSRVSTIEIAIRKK

Sis10b ΔN12 = target: T4, Sis10b ΔN12 (Sulfolobus islandicus REY15A, UniProt F0NHH1 13-97, del1-12); assay: EMSA; 55°C; EMSA: 20 mM HEPES-NaOH pH 7.0, 1 mM DTT, 100 ug/ml BSA, 6% glycerol, 30 min at 25, 37 or 55°C; gel in 0.5x TBE at the same temperature; settings: protein: recombinant; tags: none; chain copies: 2; label: 5' 32P on top strand; blunt
T4 sequence: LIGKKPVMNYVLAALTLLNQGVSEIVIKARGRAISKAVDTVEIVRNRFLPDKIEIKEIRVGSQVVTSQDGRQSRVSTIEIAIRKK

[4] = target: T5, Sis10b M20E/L24E/L27E/F60E (Sulfolobus islandicus REY15A, UniProt F0NHH1 1-97, M20E;L24E;L27E;F60E); assay: as above; settings: protein: recombinant; tags: none; chain copies: 2; label: 5' 32P on top strand; blunt
T5 sequence: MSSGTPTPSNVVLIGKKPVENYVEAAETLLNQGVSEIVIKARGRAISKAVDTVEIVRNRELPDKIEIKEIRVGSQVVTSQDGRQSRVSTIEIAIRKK

Sis10b K17R [5] = target: T1, Sis10b K17R; assay: as above; settings: protein: recombinant; tags: none; chain copies: 2; label: 5' 32P on top strand; blunt
Sis10b K16A [6] = target: T2, Sis10b K16A; assay: EMSA; 37°C; 1.1-1.7-fold better than ssRNA; EMSA: 20 mM HEPES-NaOH pH 7.0, 1 mM DTT, 100 ug/ml BSA, 6% glycerol, 30 min at 25, 37 or 55°C; gel in 0.5x TBE at the same temperature; settings: protein: recombinant; tags: none; chain copies: 2; label: 5' 32P on top strand; blunt
Sis10b K17A [7] = target: T3, Sis10b K17A; assay: as above; settings: protein: recombinant; tags: none; chain copies: 2; label: 5' 32P on top strand; blunt

**Q.** Does UGACUUCCGCGCGUGAGCUCGAUUCCACAUACCCUAAAUCGCUC (ssRNA) [44-nt ssRNA (t)] bind (Sis10b K17R [1])?
**A.** binds

**Q.** Does UGACUUCCGCGCGUGAGCUCGAUUCCACAUACCCUAAAUCGCUC (ssRNA) [44-nt ssRNA (t)] bind (Sis10b K16A [2])?
**A.** binds

**Q.** Does UGACUUCCGCGCGUGAGCUCGAUUCCACAUACCCUAAAUCGCUC (ssRNA) [44-nt ssRNA (t)] bind (Sis10b K17A [3])?
**A.** binds

B1: 44-bp dsRNA (dsRNA)
RNA 1: UGACUUCCGCGCGUGAGCUCGAUUCCACAUACCCUAAAUCGCUC
RNA 2: GAGCGAUUUAGGGUAUGUGGAAUCGAGCUCACGCGCGGAAGUCA
**Q.** Which results are given for B1?
**A.** Kd (Sis10b ΔN12): ~98.1 nM; Kd [4]: ~82.3 nM; Kd (Sis10b K17R [5]): ~28.2 nM; binding result (Sis10b K16A [6]): binds; binding result (Sis10b K17A [7]): binds
